Experimental data published in publication PMC2885556.

Target: wild-type E. coli ClpX (E. coli) (UniProt P0A6H1)
UniProt P0A6H1, sequence (P0A6H1 whole entry): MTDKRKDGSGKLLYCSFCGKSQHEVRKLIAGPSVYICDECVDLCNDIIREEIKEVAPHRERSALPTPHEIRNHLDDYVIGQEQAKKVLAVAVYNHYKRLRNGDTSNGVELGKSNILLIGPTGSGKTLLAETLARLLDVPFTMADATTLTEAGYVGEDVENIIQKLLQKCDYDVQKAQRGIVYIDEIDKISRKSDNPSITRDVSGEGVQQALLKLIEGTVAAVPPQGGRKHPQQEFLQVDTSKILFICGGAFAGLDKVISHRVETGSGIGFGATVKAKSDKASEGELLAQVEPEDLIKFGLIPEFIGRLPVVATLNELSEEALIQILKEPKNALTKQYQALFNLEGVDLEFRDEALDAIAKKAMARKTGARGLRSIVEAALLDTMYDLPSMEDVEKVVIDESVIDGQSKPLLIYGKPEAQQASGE

rate of decapeptide cleavage by ClpP with ClpX•ATPγS, against ClpP alone: 9 fold
Substance: wild-type E. coli ClpP with a C-terminal His6 tag (from UniProt P0A6G7 15-207) (enzyme)
